Data published in article PMC8569552, “Basolateral protein Scribble binds phosphatase PP1 to establish a signaling network maintaining apicobasal polarity” (The Journal of Biological Chemistry, 2021).

Target: the molecule itself
Experiment: native gel or EMSA; BN-PAGE (Native-PAGE Novex Bis-Tris) of 1% Triton X-100 lysates of DLD20-2 cells expressing the tagged protein, no cross-linking; blot probed for GFP

B1: sLUR-517GFP (domain or fragment, human, UniProt Q14160 1-517, looked up)
chain: MLKCIPLWRCNRHVESVDKRHCSLQAVPEEIYRYSRSLEELLLDANQLRELPKPFFRLLNLRKLGLSDNEIQRLPPEVANFMQLVELDVSRNDIPEIPESIKFCKALEIADFSGNPLSRLPDGFTQLRSLAHLALNDVSLQALPGDVGNLANLVTLELRENLLKSLPASLSFLVKLEQLDLGGNDLEVLPDTLGALPNLRELWLDRNQLSALPPELGNLRRLVCLDVSENRLEELPAELGGLVLLTDLLLSQNLLRRLPDGIGQLKQLSILKVDQNRLCEVTEAIGDCENLSELILTENLLMALPRSLGKLTKLTNLNVDRNHLEALPPEIGGCVALSVLSLRDNRLAVLPPELAHTTELHVLDVAGNRLQSLPFALTHLNLKALWLAENQAQPMLRFQTEDDARTGEKVLTCYLLPQQPPPSLEDAGQQGSLSETWSDAPPSRVSVIQFLEAPIGDEDAEEAAAEKRGLQRRATPHPSELKVMKRSIEGRRSEACPCQPDSGSPLPAEEEKRLSAE
notes: Scribble, LAP unique region (sLUR): LRR domain of 17 LRRs, LAPSDa and LAPSDb; the discussion calls the tag mGFP; also called full-length sLUR; source: DLD20-2 cells (LAP protein-deficient DLD1), transfected clones, in lysate
stoichiometry N: 2
